Assay results: doi:10.1101/379156
Blank lines part the entries; values can stand above or below the substance they belong to.

Tests used:
Experiment in all cases: SEC
[1] = target: bimodular construct 25 (MAT-ACP didomain fused to full-length mFAS) (Mus musculus) (UniProt P19096)
[2] = target: mFAS delta-module, construct 6 (2-2195) (Mus musculus) (UniProt P19096)
[3] = target: murine fatty acid synthase (mFAS) (Mus musculus) (UniProt P19096); settings: remark: other sources report otherwise
[4] = target: mFAS alpha-module, construct 17 (KS-MAT-ACP, mFAS sequences only) (Mus musculus)
[5] = target: mFAS alpha-module, construct 22 (KS-MAT-ACP-TE, mFAS sequences only) (Mus musculus)

- stoichiometry N [1]: 2
Substance: bimodular construct 25 (MAT-ACP didomain fused to full-length mFAS) (from UniProt P19096 1-2504)

- stoichiometry N [2]: 2
Substance: mFAS delta-module, construct 6 (2-2195), P19096 2-2195

- stoichiometry N [3]: 2
Substance: murine fatty acid synthase (mFAS), P19096 1-2504

- stoichiometry N [4]: 2
Substance: mFAS alpha-module, construct 17 (KS-MAT-ACP, mFAS sequences only) (domain or fragment)

- stoichiometry N [5]: 2
Substance: mFAS alpha-module, construct 22 (KS-MAT-ACP-TE, mFAS sequences only) (domain or fragment)
